Source: the supplement of paper PMC12338614
± gives the uncertainty stated by the source.

B1: library; numbered along this chain (parent)
chain: MEVVDPQQLGMFTEGELMSVGMDTFIHRIDSTEVIYQPRRKRAKLIGKYLMGDLLGEGSYGKVKEVLDSETLCRRAVKILKKKKLRRIPNGEANVKKEIQLLRRLRHKNVIQLVDVLYNEEKQKMYMVMEYCVCGMQEMLDSVPEKRFPVCQAHGYFCQLIDGLEYLHSQGIVHKDIKPGNLLLTTGGTLKISDLGVAEALHPFAADDTCRTSQGSPAFQPPEIANGLDTFSGFKVDIWSAGVTLYNITTGLYPFEGDNIYKLFENIGKGSYAIPGDCGPPLSDLLKGMLEYEPAKRFSIRQIRQHSWFRKKHPPAEAPVPIPPSPDTKDRWRSMTVVPYLEDLHGADEDEDLFDIEDDIIYTQDFTVPGQVPEEEASHNGQRRGLPKAVCMNGTEAAQLSTKSRAEGRAPNPARKACSASSKIRRLSACKQQ

Variants of: B1
Test: STK11 functional score (HeLa growth suppression), rescaled enrichment; synonymous median = 1, nonsense median = 0 (normalised score)
Settings: with HeLa; variant type: missense
Method: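 Deep mutational scan (TileSeq/POPCode codon randomisation) of full-length codon-optimised STK11 cDNA integrated at a Bxb1 landing pad (AAVS1) in HeLa cells. Restoring functional STK11 suppresses HeLa proliferation. Variant frequencies were measured by NGS before and after about two weeks of growth. The error-corrected enrichment log-ratio was rescaled so that synonymous median = 1 and nonsense median = 0, scores above 1 were compressed, and codon-level and three biological replicate scores were combined; error is the bootstrapped standard error. Scale: synonymous median = 1, nonsense median = 0; below 0.5 = damaging.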

Variant | STK11 functional score
I274R | 0.816 ± 0.21
E342K | 1.61 ± 0.47
L344T | 1.56 ± 0.17
V337R | 0.662 ± 0.2
M136D | -0.0676 ± 0.092
L285G | -0.0815 ± 0.1
I361S | 1.46 ± 0.16
G215C | 1.06 ± 0.2
T185D | 0.415 ± 0.37
A295D | 1.21 ± 0.17
A76V | 1.06 ± 0.077
D277W | 0.81 ± 0.57
P149I | 0.249 ± 0.1
P319N | 1.48 ± 0.16
T328V | 1.36 ± 0.14
K311V | 0.835 ± 0.47
G370S | 1.52 ± 0.23
S31F | 0.829 ± 0.12
G385A | 1.46 ± 0.15
L50M | 0.814 ± 0.23
K403S | 0.892 ± 0.59
L17M | 0.968 ± 0.24
T24W | 1.6 ± 0.093
G58E | 1.04 ± 0.23

Variant | STK11 functional score
S193R | -0.142 ± 0.11
E138C | 0.386 ± 0.081
A206G | 1.14 ± 0.26
A410I | 1.54 ± 0.22
K96I | 1.08 ± 0.17
G270H | 1.07 ± 0.31
M392S | 1.52 ± 0.26
P281S | 0.965 ± 0.17
V243N | 0.56 ± 0.19
S193H | 0.192 ± 0.33
M129C | 1.26 ± 0.13
T185S | 0.939 ± 0.26
I356Q | 1.58 ± 0.21
P319G | 1.53 ± 0.2
S404H | 1.6 ± 0.28
Q214V | 0.919 ± 0.23
M335C | 1.36 ± 0.15
I177A | 0.128 ± 0.22
E145L | 1.16 ± 0.17
Q220W | 1.46 ± 0.12
M335G | 1.55 ± 0.15
D258Y | 1.49 ± 0.2
F354R | 1.53 ± 0.16
I424V | 1.33 ± 0.23

Variant | STK11 functional score
E357H | 1.6 ± 0.17
G370W | 1.41 ± 0.31
I356P | 1.6 ± 0.26
I161W | -0.296 ± 0.057
D359H | 1.21 ± 0.39
P149E | 1.52 ± 0.19
L80R | 0.408 ± 0.11
V143W | 0.622 ± 0.081
L201M | 0.914 ± 0.17
G385Q | 1.57 ± 0.24
G270Q | 1.16 ± 0.38
V66C | 1.46 ± 0.32
S299L | 0.649 ± 0.57
W239A | 0.388 ± 0.093
S59G | 1.65 ± 0.34
K287G | 1.28 ± 0.16
S283Q | 1.51 ± 0.21
T244G | 0.014 ± 0.099
C134Q | 0.746 ± 0.38
Y118M | 1.62 ± 0.21
D194E | -0.268 ± 0.36
P387Q | 1.37 ± 0.32
G58W | 0.24 ± 0.092
G385F | 1.36 ± 0.46

Variant | STK11 functional score
F255E | 0.827 ± 0.37
L195F | 1.46 ± 0.21
V3W | 0.953 ± 0.5
G56R | 0.136 ± 0.092
P275D | 1.63 ± 0.17
E376R | 1.39 ± 0.16
E375F | 1.29 ± 0.29
L50H | 1.08 ± 0.14
P315L | 1.42 ± 0.18
G394W | 1.29 ± 0.24
K124R | 1.18 ± 0.52
F219S | 0.778 ± 0.18
N181S | -0.0295 ± 0.073
R415K | 1.17 ± 0.5
K311H | 0.501 ± 0.66
D30A | 1.7 ± 0.28
L182R | 0.129 ± 0.17
P89A | 1.1 ± 0.3
A417D | 1.41 ± 0.36
P323C | 1.28 ± 0.5
P323K | 1.58 ± 0.15
N266S | 0.965 ± 0.15
Q137D | 0.482 ± 0.11
D68A | 0.846 ± 0.48

Variant | STK11 functional score
S240E | 1.52 ± 0.24
E165K | 0.973 ± 0.53
D355I | 1.18 ± 0.42
P144E | 1.63 ± 0.2
D141W | 0.69 ± 0.12
P373I | 1.31 ± 0.18
L245R | -0.0758 ± 0.098
A241P | 0.702 ± 0.45
R415I | 0.924 ± 0.23
D141P | -0.241 ± 0.11
Y131Q | -0.0871 ± 0.078
M136R | -0.124 ± 0.086
D365C | 1.51 ± 0.17
Y292M | 1.64 ± 0.31
G276L | 1.11 ± 0.21
F255Y | 1.25 ± 0.79
R86I | 1.24 ± 0.1
Q112Y | 1.01 ± 0.096
Q112R | 0.64 ± 0.078
D30T | 1.62 ± 0.21
C278F | 0.811 ± 0.14
D350R | 1.61 ± 0.17
K191V | 1.19 ± 0.29
I300S | 0.391 ± 0.083

Variant | STK11 functional score
N119G | 0.965 ± 0.23
T24Y | 1.49 ± 0.37
G288H | 1.61 ± 0.19
Q37T | 1.69 ± 0.12
S334F | 1.1 ± 0.45
H345I | 1.44 ± 0.22
S428G | 1.6 ± 0.32
K82Q | 1.7 ± 0.18
M392D | 1.19 ± 0.45
V143D | 1.46 ± 0.33
N119D | 0.736 ± 0.88
P373R | 0.782 ± 0.29
P319Q | 1.39 ± 0.2
V197R | 1 ± 0.12
K62Y | 1.31 ± 0.49
P319S | 1.4 ± 0.28
P321A | 0.987 ± 0.33
E396D | 1.45 ± 0.49
T186Y | 1.14 ± 0.14
P413V | 1.4 ± 0.24
R75G | 1.56 ± 0.46
P275N | 1.41 ± 0.16
E223Y | 1 ± 0.71
A389F | 1.33 ± 0.27

Variant | STK11 functional score
K62A | 1.7 ± 0.31
Y36T | 1.04 ± 0.72
L182C | 1.17 ± 0.16
Y36C | 1.11 ± 0.25
L386T | 1.6 ± 0.29
Y253W | 0.66 ± 0.1
G233S | 1.44 ± 0.3
R384V | 1.22 ± 0.16
P149V | 0.694 ± 0.095
T186C | 1.19 ± 0.2
G288Y | 0.713 ± 0.46
L190V | 1 ± 0.28
E120M | 1.11 ± 0.11
T244M | 1.38 ± 0.098
K122T | 1.61 ± 0.44
L353C | 1.17 ± 0.72
R74F | 0.896 ± 0.37
L50P | 0.95 ± 0.22
M335Y | 1.32 ± 0.35
F231V | 0.867 ± 0.094
T71I | 1.11 ± 0.24
M125Y | 1.31 ± 0.52
A316Y | 1.4 ± 0.12
